The assay has as its target Biotinylated peptide BubR1 WT (Q293 to R302) (human). Briefly: pull-down.

“GST-tagged BubR1 TPR (wild type) (from UniProt O60566 1-230) (domain or fragment)” gave a fold of protein bound against the W295A peptide of 5 fold.

Source of the values: article doi:10.1101/2025.10.13.682252.
